Series [1] deals with SapA Q85S R101S (nontypeable Haemophilus influenzae 86-028NP). The experiment in a line: EMSA (agarose, decrease of rRNA bands). A general note: In EMSA bound probe runs differently from free probe, usually more slowly.
Series [2] has as its target T1, SapA (nontypeable Haemophilus influenzae 86-028NP) (UniProt Q4QL73).
T1 sequence: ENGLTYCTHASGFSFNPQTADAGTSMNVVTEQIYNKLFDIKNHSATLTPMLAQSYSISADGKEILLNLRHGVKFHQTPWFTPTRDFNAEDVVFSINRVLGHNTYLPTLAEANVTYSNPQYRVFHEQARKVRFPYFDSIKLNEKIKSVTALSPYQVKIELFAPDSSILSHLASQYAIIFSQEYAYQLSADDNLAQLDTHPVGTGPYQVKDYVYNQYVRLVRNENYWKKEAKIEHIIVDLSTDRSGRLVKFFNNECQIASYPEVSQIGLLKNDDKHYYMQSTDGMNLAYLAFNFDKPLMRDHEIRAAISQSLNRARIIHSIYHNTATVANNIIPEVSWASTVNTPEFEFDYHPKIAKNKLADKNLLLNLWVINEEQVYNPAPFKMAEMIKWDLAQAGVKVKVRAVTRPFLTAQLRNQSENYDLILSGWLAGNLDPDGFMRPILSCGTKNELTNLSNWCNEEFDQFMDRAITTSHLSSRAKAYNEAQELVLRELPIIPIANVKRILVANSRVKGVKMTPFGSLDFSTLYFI
Put plainly: EMSA (agarose, decrease of rRNA bands).

The subject of series [3] is SapA R101S (nontypeable Haemophilus influenzae 86-028NP). Put plainly: EMSA (agarose, decrease of rRNA bands).
The target in another series is T2, SapA (Haemophilus influenzae, UniProt Q4QL73).
T2 construct: residues 33 to 560, without the predicted signal peptide
The experiment in a line: ITC (stoichiometry fixed to […]), crystal structure by hemin soaking ([…] Å), native PAGE shift. The format is binding.

The term Kd denotes the equilibrium constant for the complex coming apart.

Turning to “E. coli DH5alpha rRNA (16S + 23S bands of total RNA)”, the values for the Kd in series [1], in series [2] and in series [3] were 23 µM, 4.4 µM and 7.7 µM, respectively.
For `C=CC1=C(C)C2=Cc3c(C=C)c(C)c4[n]3[Fe][n]3c(c(C)c(CCC(=O)O)c3=CC3=NC(=C4)C(C)=C3CCC(=O)O)=CC1=N2` [heme], the Kd at SapA turned out to be 282 ± 18.3 µM.

For the origin of these results see paper PMC8519434, “The structure of nontypeable Haemophilus influenzae SapA in a closed conformation reveals a constricted ligand-binding cavity and a novel RNA binding motif” (PLoS ONE, 2021).
